The values below come from publication PMC10575957.

What all share (assay): cryo-EM structure; portal-tail complex of the native P-SCSP1u virion, symmetry-mismatch reconstruction, C6 symmetry, 3.8 Å; virions in SM buffer
For experiment [1], the target named is P-SCSP1u portal protein (gp16) (cyanophage P-SCSP1u).
Experiment [2] addresses P-SCSP1u nozzle protein (gp23) (cyanophage P-SCSP1u).
In experiment [3] the target is P-SCSP1u adaptor protein (gp22) (cyanophage P-SCSP1u).
The target of experiment [4] is P-SCSP1u fiber protein (gp28) (cyanophage P-SCSP1u).

As usually defined, the stoichiometry N is a count of units in the complex or per binding partner. “P-SCSP1u portal protein (gp16) (natural protein)” returned a stoichiometry N in experiment [1] of 12.

Turning to “P-SCSP1u nozzle protein (gp23) (natural protein)”, the stoichiometry N in experiment [2] stood at 6.

As to “P-SCSP1u adaptor protein (gp22) (natural protein)”, in experiment [3], the stoichiometry N stood at 12.

In experiment [4], “P-SCSP1u fiber protein (gp28) (natural protein)” registered a stoichiometry N of 3.
